We go through 16 sequences from the DeepSol protein solubility set.

The series in a line: soluble on expression in E. coli; label from the status in PepcDB or PDB records.
Regarding “MAHHHHHHMMLRSHVGYDDLQNGGSDQPVSFLRSAAGRTYLADGSSALSSAQLTAAQKLLPLTDRSSQAALDAARLEPPIEHASVMYHGCQQAVLNAELREKVEAHYKHWSSRVEELQALLSDLPTESALHSTRAVENLHSYLGAYRCTEDMLVTPSEVVEQHALRTPVPEIDVMFQMPAIPMDTMRRALDDLLRSPYLLAPLDTHLAHLSLLDKLGQLSWSGEGEVTAPLSKKPRGKRAVARKDCTVDESNETGVVLQAEEAAAEEDIYPSRAAVAMHERLHYNPGDYAQRELKKSEEALRELQDRMQTAKRQKEEAIDAADPLTALRNLHAQVDFSNDLLLLYRARMALVSLHSDDTRDFRRDVVDLIDDSHQSVQAVHRYAREALPSVQHDVRAMTEVIRQTQQRLIAMQATEAAADAGMRAHLCDMDKAARVLWEEVGALLEKIAENARERGRYAQKCMSLREQRAKEAAAVNAQLQAQSAHCERLCRCEEVLTRWNQAGDVFGKYMDACVPKLLKHLAAVEESDADLAQREAEGYVGCYEQFVYAAEEARAKRCTQADRMRLLQRSTLLNQERASDTMDPDAPAHAQRLDDVSRELDEVQLYLKYLSDMEADRKAEVDPVLRGVLARQTQAQLVTTGEEGEAEKPLPTPGLLEDAPAASTADAKPSLASPSTAAETTKSTSAVPATAAGDGAVVAATTTATTTAPPSLSVTVAHPFVTARLIGLAHESDYISQQGQLLGQEMQAVEAKWTGLRHSRKELQAMEEKYKNGDDIRALLGVEKL”, the “soluble on expression in E. coli” value is reported as “soluble”.
Under “MAHHHHHHMMNTSLLGQDVDEIQSAVDRWYHQSSSNLQASHAAFTAQLRQLQERLGLDPGAPTLSAHVDAMITPPRHMYLSDDNNSGSPPMASPPISRGQLNYDHLLDEVINKGASMPPFNPEEEAERRRRPNAESVRAPSTPPEDCNGPCQVLVEFKRKRVLQYESPYYVAPGEHVVVGGDRGEDIGLVTHSWRDAEAHQLGENRDKGVGKVLRVASVLEVTQLQGVQTELETRAVEVAQEKVQESGLPMRIVDAEYQFDRRKLTFYYQSMHRLDFRTLVRDLYKTFRARIWMEPDTSS” stands “soluble”; under “MAHHHHHHMMRRVYAPVFCSVAAARFAATSAAKKYDLFGYEVDTNTAPWIEKIKKCKYYDEAGEVLVNMNVSNCPPDIATYNATLQCIYQSPSKQSTPVDNESKFCAMMDLLEEMQHRNRLKPNEESWTWVMKECVKSGQFRLGYCIQQVMETECKGCPADLVKANEANAQKAKTEGKEHPGHLSQQAGLFDVKVE”, “not soluble”; under “MAHHHHHHMMSQSLNALRSGTACFPTTIAQQRRWITRLYTSYYPGVLYPNQLVQHKQRLPPGVSLSTALKARTQTRQEQSVAGREVPEENETRGVSWTDASSTDVMHTGNARRQEKVSVATGRSYVPLGEVAKLELQGDYCMEGGLFQEALERYGVVAKAYSIAYPENHSQRIGILLKLASAFRHVGRLDSSKVNIENALKMLDASSRPSLELICEALLELGLTREAKSMKNEGAEAYEEAVEVLNLFHNWGESHRMLRLLPRLGRRFNLNFEEKFVYFSPFDYDRTFAIADQCMERAEKVYRETGDSNGIIRVLQCRKEMIDKKFFNLRDFAGRIHTMRGHWMRRAQHLTNAPTPDELLRYTPTIHQVYRDFKYELTAPIGREKEVMPGVNRVVLDMGNPYRRRGRLSNKMLRDADHNFANYVRREEYNA”, “not soluble”.
Then “MAHHHHHHMNGRYVPQEVLGTGTYGRVLRCNDVLTGRQVAVKVSQRDAAYRRSAMNEIRVLQLLSHTDNALKMFDFFEDSGHLCIASELLCTDFYEVLRKNGFQPLSLDTVRIVGERVLRALAELHKAGYMHCDIKPANVMLRFNETDRSNLSDFTKTCLIDFGAARQFHENTYYDVQSLWYRAPEVMLGLPYTSHIDSWSVGCLLFELYTGKPLFAGENPREQMTSIMCTVGMPPMEAFSSGANVEKLQLPCLAMDVNAEANLRNLIASYRCNNTGFNHSYQLVGEESAFVNLLCALLQPDVRWRLSCTDALHHAFFTSRCLYHGNIVSANFSVFSPSSNGLQSSIDSNFGAVFSSTGNDARGFGGFEHLVPQQTQPHPNPHPQPRLKSESSPILPANSNSVPLVGLVGSPPGMVLPGTRPPASSQVNIPSSRVVLQNVMYPTPPMKIIQPVPFNTQQSQKALQQPQRVSANMLPVMVSAIGNPYSFPPCVRPECQVQNWEPVIFQPQQQIPPEVTPMFQCKILPGGCQYNYQGGADPSFYGASIKSGLHSAVYVPS”, with “not soluble”; and “MAHHHHHHMNKFENFYKVPISYKNRKNEIYKYDNLEYNKMKYGMPEYYRCPYYMHENRNLYNTESCYTPNINVGRNSFYGKTLDPNDKICEENDSVYNILEEDHKEESFKKIECMNKEDDRKKIYNKVEKNDDENIDNKKHNYCEKYEEVYPKDRSSIKIIYNDVDQQIDHNLYDDENEIVCDNEIKKRKKRDRKVFMGKYFFSDIINTIIYPCTNKSLQKYQYGSVENMDYSLYNDIQKGQKIQKVDKIKNKKAPQIIVKF”, with “not soluble”.
Under “MAHHHHHHMNLKTKLQKRRDEVNTCLCIGLDPDEADIKSFMQSEKQNGYQSIKKNLSNHGSSSQGGLFTPQVGGTMLLAENPPKEVQEKDEFFYFFNHFCFYIINETKQYALSYKMNFAFYLPYGSLGVDVLKNVFDYLHYLDVPTILDIKMNDIGNTVKHYSKFIFHYLRSDSCTANIYMGTHMLRDICLDEECKRHYSTFVLIKTTNPDSHIFQNRLSLDGKEAYVVIADEAQKMAKQLHLEENGEFVGFVVGANCYDEMKKIRELFPDCYILAPGVGAQKGDLRKTLCNGYSKNYERLLINVGRAITKSGNPQQAAREYYHQIKEILAELRE” stands “soluble”; under “MAHHHHHHMNLNKKNEELEKVKIVLTQKIKNLESNLSPKESEIKVMREKIDEMAKSFENNHKKRVNLQIEINEYKMKIKFLHDDLLNYNKTIMNYEKILKNLQDHIKECYLHLHDKKIFNSSFLNLYNKFHKVNDVQNYDAKNVFSEYIRQKEYLENMIEVLKDKLHKETEAFRNEKIKMMNENSLLLKEINDLKMDLNFLKSECHEAQLQNRKMKFLKKRSESKERKKEKKEKKEKKEKKENKDNNEEKNIDIK”, “soluble”.
For “MAHHHHHHMNNSKENDSVSKLSFKNKNIKLIKVPKFVSNKWLQYNNKDIVGLLGCNNNNNNDSEITELYVQKDDSDNVKKLRCNKNNTVNTYILKQNVIKLKSTNKSVSNSAGTLNNKSNDYTNTNKGKNTMNNLSKDNSDKHKEFDYVVCADLIKTCDYTYSFLPTLDQDYSSILKERHYKTNVKKERFTIIETRNEENMDATHTLFKYYTSEDKLNNESKDKNMKNNKRLFTDNDNLNTVSHSTSKQKAKQSKKMHVFDLDKAKISIFKIFEREGQNGVPFSFFTKSFNIPANHIKGILDEIAIKGKRDTDKKTVYFLKNCIG”, the “soluble on expression in E. coli” value was “not soluble”.
In the case of “MAHHHHHHMNTFFLSRFRGGTFFLQKYEKIWNRAKGYHTYNYIFQNNKNIINHKKKNRNLFLYEKRNFYTSNDGKKYTKKFWNHLGFVIIPQETAYIVERLGKYNKTLLAGIHFLIPFIDKIAYVFSLKEETITIPNQTAITKDNVTLNIDGVLYIKCDNPYNSSYAIEDAVFAVTQLAQVTMRSELGKLTLDATFLERDNLNEKLVKAINESAKNWGIKCMRYEIRDIILPVNIKNAMEKQAEAERRKRAEILQSEGERESEINIAIGKKRKSILIAEGQSFAIKAKADATAEAIEIISNKIKKLDSNNAISLLVAEQYIDVFSNICKNNNTVIIPADLNNISSLISQSLSIYNNIQNSKKENNQIHTLPIQKQIHSDMNN”, the “soluble on expression in E. coli” value was “not soluble”.
Under “MAHHHHHHMNTSLSNNENENNFFIKSFFESLSNFIKNIKIEIKDTFELLNYPCVYQNSKKKFSVSENEDYKNSLTTNVISKIDKKNIENFRVYQKELHNILQNIKTFNEKYKLDVPLLSIMENLIILHLINEYKINNIVKKIQEHNIPMPELNSDLPDYLIPTLELEENQNESNLNVSISEINNLSINNNAVKHILENAQLKVDFSKLVKLNGENHLNSSSINPSSELNEKSDELTLYKKDDKIHNLTHDIKEEINNERNEDQYLNRSHNNEDEKHTLMTSKKEEKVNLIQNIGLSEETLKLLNLLPKKRKNDQN” stands “not soluble”.
Under “MAHHHHHHMPFSLGELQNVFLDALTGCPPDAPQQTRDTAVTVAGASIFAGSWQPLESTRVPVRAYLRGTGEFDTEDSCRRAVMRVVDATLNDVLNDDAVNAFIGAKACESADIVGACEHILRKYLLWMLDGYLHYDGTPQCPFYDALKSTVCAFSVEWGQTFGPMFAEAQSPDEFFSLLVTRGAQHHATAVATNPDDAKVRMATAMSIQVFLMAKTYSPSTPFPSRVAL” stands “soluble”.
Under “MAHHHHHHMPLIVPTPPAHPAQSPNQANGELLGRLMKLYRALCVRHDELGQEVILNDILAFLTRTHQHDMAESVIATCEISLPHRSNNQAARYFYYVGLTRALRLEYVDANQCLQQALRKAPERAFGFRVAATKLALVVQLLLGEIPPRSDFLQKDMRESLSPYLQLASCVRFGQLSRFMSILQQHKNIFEHDRTYSLILRVRQHVIKTGLRRICHAYSRISIPDICFKLSMENPADAEYIIAKAIRDGVIDAVIDHEKGHLISSDTVDVYSTSEPLLALQRRIQFLNVTHNDAKRSMRYTAADPELEEERRKVDREEMDSALRAALEDEELGGTDFEDGLP” stands “not soluble”; under “MAHHHHHHMPLNAQQLLFHLARRNSAPPWRWFPTATENKLFERLDTSGSPTAQVVYSQFVQARLQGSCSAGTAPIQLDLFLDELTPSDDGDYILRCPLANSHLMKRLVVPAPMRIAMHGLLQEVIDVFQQAGIRYWAAGGTLLGAVRHGCIIPWDDDVDLAISVEDELKLRSAFKYPCAHGSDDNIGDNSGDCNSEYSSESSSNEVEKNDGNNGGNLVLEYVPLFGYKVYSRLLPPPFPSPSLPGVGSSCLRYGYFVDIFIMRESKNRFVLARESAQRTWPDEWWHVDELFPLLQKPFAAVAACASEQHPQTALQLSVGRYPLMHLHRLYGETCMQEALIPRELHGRELSHSLRIPLELL”, “not soluble”; under “MAHHHHHHMPLVEYVNEEGYRLDGRKEDECRLIKINVGNENIFTDADGFAFYEIGNTKLLSYIQGPTELKKSEEKCSIKCEVFLSPFNVYEKKKKKTKDSVTNEISAYIRNICENIILLDLYKNSEINIFLYIIERDGGVKHAAINTCILALIDAGIAIKYFISACSVLFLQNRILVDGNQLEINSGAPELTMVIELNTHKIVLLEFDAEVPIDIFEAMVRTCMDCCINLGNVMKLTVKENAIKLLCLNNMLNA”, “not soluble”.
“MAHHHHHHMPPPNTLQRGSEWVAQCMRDIKAAKLQQTVRPYSNGTPAGEALPVRTIVATSRIHRGEHLGTVKRDSIMTGERASQLLRRACRGGPSQTDVTAATGLQPLAAQRFDDLVSRISSLPSALSVPPHLLLSRDALLVTVALYLTRSPLNAGVLPAESPLRAWADALPRRPPPMGALLRRSFLSHDDVEPLPRRLRLGQRTKEVAPGEDVAAASTELMVQAVEQGELELADLRRPEMETALTPTVLTNYFKGRMSALTQRQRQSQRARGGVAEAEEGALHLFMTWERQLQTHFVDALLPVLLLPSCGSCASNLEAVQDSAAWLGEESALRWAHFMTRSRAVNLNWRHPGPPQLSIVPLVDMLNHTSRANANVVYQREDSGDVCVTASRTIEAGEELVLRYNHIGQRGCLFGDLPRPSKPTAEHERGRLSGKAAAVADEVHRIEKRQYWELYACDEDEEAVQHTGHTPSTSFTASTRCGTFDPAPPAAVGQQEMEQEVQWLWRFGFLRSNEEKNREAALLWSRGLRSRIAHLTDVRRKGRPGEFVLGVPEGLQHLREQREQLERNRYNNKKVFPPQQL”: the “soluble on expression in E. coli” value was “not soluble”.
